This is an account of results in paper doi:10.1101/2022.11.15.516651 (bioRxiv, 2022).

For one test, the target named is T1, FLAG-SLC3A2 N381D (human, UniProt P08195-1 66-630, N381D).
T1 sequence (looked up): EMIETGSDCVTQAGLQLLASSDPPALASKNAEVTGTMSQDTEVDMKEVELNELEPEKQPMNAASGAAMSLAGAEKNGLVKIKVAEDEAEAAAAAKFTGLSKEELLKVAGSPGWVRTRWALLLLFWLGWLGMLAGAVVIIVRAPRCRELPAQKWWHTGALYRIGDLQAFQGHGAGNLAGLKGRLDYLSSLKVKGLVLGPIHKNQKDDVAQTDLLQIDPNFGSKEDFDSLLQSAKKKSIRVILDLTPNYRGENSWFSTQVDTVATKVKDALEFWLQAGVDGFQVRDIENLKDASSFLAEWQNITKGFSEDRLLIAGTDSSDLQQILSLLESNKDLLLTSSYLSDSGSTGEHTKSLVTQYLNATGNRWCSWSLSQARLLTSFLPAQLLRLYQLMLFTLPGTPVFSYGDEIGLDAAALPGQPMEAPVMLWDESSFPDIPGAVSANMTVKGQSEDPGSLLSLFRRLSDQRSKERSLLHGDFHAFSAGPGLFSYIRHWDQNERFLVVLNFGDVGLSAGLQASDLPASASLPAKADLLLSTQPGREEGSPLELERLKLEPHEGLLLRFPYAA
In words: affinity purification with mass spectrometry.

The next test deals with T2, FLAG-SLC3A2 N365D (human, UniProt P08195-1 66-630, N365D).
T2 sequence (looked up): T1 sequence (looked up) with N300D, D316N
The test can be described thus: affinity purification with mass spectrometry.

Numbering of substitutions follows the chain as printed.

B1: SLC7A5 (natural protein)
chain: not shown
In the case of B1, the “percent decrease of association against WTseq” value in the test with FLAG-SLC3A2 N381D and with FLAG-SLC3A2 N365D was 44 ± 14% in each case.

B2: SLC7A11 (xc(-)) (natural protein, human (endogenous in HeLa), UniProt Q9UPY5 1-501, looked up)
chain: MVRKPVVSTISKGGYLQGNVNGRLPSLGNKEPPGQEKVQLKRKVTLLRGVSIIIGTIIGAGIFISPKGVLQNTGSVGMSLTIWTVCGVLSLFGALSYAELGTTIKKSGGHYTYILEVFGPLPAFVRVWVELLIIRPAATAVISLAFGRYILEPFFIQCEIPELAIKLITAVGITVVMVLNSMSVSWSARIQIFLTFCKLTAILIIIVPGVMQLIKGQTQNFKDAFSGRDSSITRLPLAFYYGMYAYAGWFYLNFVTEEVENPEKTIPLAICISMAIVTIGYVLTNVAYFTTINAEELLLSNAVAVTFSERLLGNFSLAVPIFVALSCFGSMNGGVFAVSRLFYVASREGHLPEILSMIHVRKHTPLPAVIVLHPLTMIMLFSGDLDSLLNFLSFARWLFIGLAVAGLIYLRYKCPDMHRPFKVPLFIPALFSFTCLFMVALSLYSDPFSTGIGFVITLTGVPAYYLFIIWDKKPRWFRIMSEKITRTLQIILEVVPEEDKL
Turning to B2, the “percent decrease of association against WTseq” value in the test with FLAG-SLC3A2 N381D and with FLAG-SLC3A2 N365D was 67 ± 15% each time.
